Measurements: the Immune Epitope Database (IEDB)

Columns and labels:
HLA-B*45:01 = experiment: IEDB peptide-MHC binding, purified MHC/competitive/radioactivity; filed as Kd, often an IC50 or EC50 that approximates it; ≥ and ≤ were set here for values at or beyond the usual limits of such assays
HLA-B*44:03 = experiment: as above
HLA-B*44:02 = experiment: as above
HLA-B*40:01 = experiment: as above
HLA-B*18:01 = experiment: as above
HLA-B*40:02 = experiment: as above
HLA-A*03:01 [1] = experiment: IEDB peptide-MHC binding, purified MHC/direct/fluorescence; filed as Kd, often an IC50 or EC50 that approximates it; ≥ and ≤ were set here for values at or beyond the usual limits of such assays
HLA-A*31:01 = experiment: as above
HLA-B*15:01 = experiment: as above; conditions: source organism: Rickettsia conorii
HLA-A*02:01 = experiment: as above; conditions: source organism: Rickettsia conorii
HLA-A*69:01 = experiment: as above; conditions: source organism: Rickettsia conorii
HLA-B*58:01 = experiment: as above; conditions: source organism: Rickettsia conorii
HLA-A*11:01 = experiment: as above; conditions: source organism: Rickettsia conorii
HLA-A*01:01 = experiment: IEDB peptide-MHC binding, purified MHC/competitive/radioactivity; filed as Kd, often an IC50 or EC50 that approximates it; ≥ and ≤ were set here for values at or beyond the usual limits of such assays; conditions: source organism: Mammarenavirus brazilense
HLA-A*29:02 = experiment: as above; conditions: source organism: Mammarenavirus brazilense
HLA-A*30:02 = experiment: as above; conditions: source organism: Mammarenavirus brazilense
HLA-A*26:01 = experiment: as above; conditions: source organism: Mammarenavirus brazilense
HLA-A*30:01 = experiment: as above
HLA-A*32:01 = experiment: as above; conditions: source organism: Mammarenavirus brazilense
HLA-A*03:01 [2] = experiment: as above; conditions: source organism: Dengue virus 4 Philippines/H241/1956
HLA-B*35:01 = experiment: as above
HLA-B*53:01 = experiment: as above; conditions: source organism: Dengue virus 4 Philippines/H241/1956
[3] = source organism: SARS coronavirus Tor2
[4] = source organism: Mammarenavirus choriomeningitidis
[5] = source organism: Mammarenavirus brazilense
[6] = source organism: Entamoeba histolytica HM-1:IMSS
[7] = source organism: Rickettsia conorii
[8] = source organism: Mammarenavirus juninense
[9] = source organism: Dengue virus 4 Philippines/H241/1956
[10] = source organism: Mammarenavirus lassaense

What does the source list for QEAYYRARAG?
Kd (HLA-B*45:01; [3]): 0.607 µM; Kd (HLA-B*44:03; [3]): 0.411 µM; Kd (HLA-B*44:02; [3]): 0.954 µM; Kd (HLA-B*40:01; [3]): 12.7 µM; Kd (HLA-B*18:01; [3]): ≥ 36.1 µM; Kd (HLA-B*40:02; [3]): 0.963 µM

What does the source list for AELLPDTTYL?
Kd (HLA-B*45:01; [4]): 17.3 µM; Kd (HLA-B*44:03; [4]): 1.21 µM; Kd (HLA-B*44:02; [4]): 0.561 µM; Kd (HLA-B*40:01; [4]): 9.78 µM; Kd (HLA-B*18:01; [4]): ≥ 70.4 µM; Kd (HLA-B*40:02; [4]): 0.167 µM

Which Kd (HLA-B*45:01; [5]) does the source give for CEMNHVNSM here?
Its Kd is 0.214 µM.

And the Kd (HLA-B*44:03; [5])?
Its Kd is 0.963 µM.

And the Kd (HLA-B*44:02; [5])?
The Kd was 0.178 µM.

What about the Kd (HLA-B*40:01; [5]) of the same sequence?
The Kd was 2.97 µM.

And the Kd (HLA-B*18:01; [5])?
Its Kd is 0.467 µM.

And the Kd (HLA-B*40:02; [5])?
The Kd was 0.067 µM.

With QECNNMHLST as the sequence, how does the Kd (HLA-B*45:01; [3]) read?
The Kd was 0.636 µM.

What about the Kd (HLA-B*44:03; [3]) of the same sequence?
The Kd was 7.12 µM.

What about the Kd (HLA-B*44:02; [3]) of the same sequence?
Its Kd is 5.61 µM.

What about the Kd (HLA-B*40:01; [3]) of the same sequence?
The Kd was 15.2 µM.

And the Kd (HLA-B*18:01; [3])?
The Kd was at least 70.5 µM.

What about the Kd (HLA-B*40:02; [3]) of the same sequence?
Its Kd is 0.595 µM.

For WYKVFVPRR, which Kd (HLA-A*03:01 [1]; [6]) is on record?
Its Kd is at least 20 µM.

And the Kd (HLA-A*31:01; [6])?
The Kd was 0.103 µM.

Which results are given for WEVGKPRPPL?
Kd (HLA-B*45:01; [3]): ≥ 59.6 µM; Kd (HLA-B*44:03; [3]): 7.21 µM; Kd (HLA-B*44:02; [3]): 5.92 µM; Kd (HLA-B*40:01; [3]): 0.0159 µM; Kd (HLA-B*18:01; [3]): ≥ 23.9 µM; Kd (HLA-B*40:02; [3]): 0.0186 µM

What does the source list for ADVFHLYLQY?
Kd (HLA-B*45:01; [3]): 11.4 µM; Kd (HLA-B*44:03; [3]): 0.147 µM; Kd (HLA-B*44:02; [3]): 2.42 µM; Kd (HLA-B*40:01; [3]): 16.5 µM; Kd (HLA-B*18:01; [3]): ≥ 20.7 µM; Kd (HLA-B*40:02; [3]): ≥ 39.8 µM

How did the Kd (HLA-B*45:01; [3]) turn out when IEELFYSYA was run?
The Kd was 0.0495 µM.

What about the Kd (HLA-B*44:03; [3]) of the same sequence?
Its Kd is 4.6 µM.

What about the Kd (HLA-B*44:02; [3]) of the same sequence?
The Kd was 1.77 µM.

And the Kd (HLA-B*40:01; [3])?
The Kd was 16 µM.

And the Kd (HLA-B*18:01; [3])?
The Kd was 3.96 µM.

And the Kd (HLA-B*40:02; [3])?
The Kd was 3.06 µM.

With KLNENIIRF as the sequence, how does the Kd (HLA-B*15:01) read?
Its Kd is 0.151 µM.

What about the Kd (HLA-A*02:01) of the same sequence?
The Kd was 1.88 µM.

And the Kd (HLA-A*69:01)?
The Kd was 4.75 µM.

What about the Kd (HLA-A*03:01 [1]; [7]) of the same sequence?
The Kd was 0.554 µM.

What about the Kd (HLA-B*58:01) of the same sequence?
Its Kd is 0.0686 µM.

And the Kd (HLA-A*11:01)?
The Kd was 5.91 µM.

And the Kd (HLA-A*31:01; [7])?
The Kd was 1.28 µM.

AETGSQGVY was tested. Which Kd (HLA-B*45:01; [8]) did it give?
The Kd was 0.211 µM.

What about the Kd (HLA-B*44:03; [8]) of the same sequence?
Its Kd is 0.228 µM.

What about the Kd (HLA-B*44:02; [8]) of the same sequence?
Its Kd is 0.271 µM.

What about the Kd (HLA-B*40:01; [8]) of the same sequence?
The Kd was 15.9 µM.

And the Kd (HLA-B*18:01; [8])?
Its Kd is 6.63 µM.

And the Kd (HLA-B*40:02; [8])?
Its Kd is 0.638 µM.

Which results are given for TEVVGNVIL?
Kd (HLA-B*45:01; [3]): 15.1 µM; Kd (HLA-B*44:03; [3]): 6.82 µM; Kd (HLA-B*44:02; [3]): 15.2 µM; Kd (HLA-B*40:01; [3]): 0.0149 µM; Kd (HLA-B*18:01; [3]): 5.87 µM; Kd (HLA-B*40:02; [3]): 0.177 µM

Which Kd (HLA-A*01:01) does the source give for HTASGEHSL here?
Its Kd is at least 25.1 µM.

And the Kd (HLA-A*29:02)?
Its Kd is at least 78.9 µM.

What about the Kd (HLA-A*30:02) of the same sequence?
The Kd was 5.64 µM.

And the Kd (HLA-A*26:01)?
Its Kd is 16.5 µM.

What about the Kd (HLA-A*30:01; [5]) of the same sequence?
Its Kd is 8.48 µM.

What about the Kd (HLA-A*32:01) of the same sequence?
The Kd was 11.9 µM.

For CLRRRVTRK, which Kd (HLA-A*03:01 [2]) is on record?
Its Kd is 0.0027 µM.

What about the Kd (HLA-A*30:01; [9]) of the same sequence?
Its Kd is 3.14 µM.

What does the source list for FDAAVMGGF?
Kd (HLA-B*45:01; [10]): ≥ 77.7 µM; Kd (HLA-B*44:03; [10]): 18.4 µM; Kd (HLA-B*44:02; [10]): ≥ 27.4 µM; Kd (HLA-B*40:01; [10]): ≥ 32.3 µM; Kd (HLA-B*18:01; [10]): ≥ 39.8 µM; Kd (HLA-B*40:02; [10]): 5.23 µM

For NPRLCTREEF, which Kd (HLA-B*35:01; [9]) is on record?
Its Kd is 0.892 µM.

And the Kd (HLA-B*53:01)?
The Kd was 0.197 µM.

Which Kd (HLA-B*35:01; source organism: Dengue virus 3 Martinique/1243/1999) does the source give for LAILFEEVM here?
The Kd was 0.0331 µM.

Which Kd (HLA-B*45:01; source organism: Variola virus) does the source give for TEYDGHINL here?
Its Kd is 0.391 µM.

What about the Kd (HLA-B*44:03; source organism: Variola virus) of the same sequence?
Its Kd is 9.88 µM.

What about the Kd (HLA-B*44:02; source organism: Variola virus) of the same sequence?
The Kd was 0.0583 µM.

What about the Kd (HLA-B*40:01; source organism: Variola virus) of the same sequence?
The Kd was 0.00619 µM.

What about the Kd (HLA-B*18:01; source organism: Variola virus) of the same sequence?
Its Kd is 0.0115 µM.

And the Kd (HLA-B*40:02; source organism: Variola virus)?
Its Kd is 0.000998 µM.

Which Kd (HLA-B*45:01; [3]) does the source give for CEKALKYLPI here?
Its Kd is 0.104 µM.

And the Kd (HLA-B*44:03; [3])?
The Kd was 1.15 µM.

And the Kd (HLA-B*44:02; [3])?
Its Kd is 0.127 µM.

What about the Kd (HLA-B*40:01; [3]) of the same sequence?
Its Kd is 6.97 µM.

What about the Kd (HLA-B*18:01; [3]) of the same sequence?
Its Kd is at least 29.1 µM.

And the Kd (HLA-B*40:02; [3])?
Its Kd is 0.0303 µM.
